# From the supplement of paper PMC9170038
# System: K4 kissing-loop RNA reporter
# Assay: apparent KD of K4 kissing-loop reporter; higher = weaker reporter binding
# Conditions: Eterna round: R107; input ligand: arginine 13.2 mM
# Protocol: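 RNA-MaP round R107: designed RNA switches with theophylline, tryptophan, arginine or FMN aptamers are transcribed on-chip within common flanks. They are titrated with a labelled K4 kissing-loop RNA reporter in RNA-MaP buffer (100 mM Tris pH 7.5, 80 mM KCl, 4 mM MgCl2), without ligand or with the indicated ligand. Median apparent KD per design.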
# 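Note: bound reporter read as fluorescence of individual clusters on recovered sequencing chips by microscopy, with normalized cluster intensities fitted with a binding model.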
row,Sequence,apparent KD of K4 kissing-loop reporter [nM]
1,UAACUCUUGCAGUGAUGUUGCAAGUAAGCUCAGGAUAUCAGGAAACUGAGAAGGGAGCAUCCUGAGCUUCUGCAAGAGCUCAGAA [KL-SSFMN-A4],152
2,CGCGUUGGUUGAGAGGUUGGCGCGAAUGAUACCAGUAUAUAAGAAUACCCUUGGCAGCAUAAGAAAGAUAUAGUGAUGUUGUAUA [SSTheophA.I],232
3,AUUUAUUCGUACUUUCAGUGAUGUUGAUAACGAGGACCGGUACGGCCGCCACUCGAUUUGGCGAUUUUGUAUUUUUUAUUCUAUA [JR_SSTryptoA_Sub010],474
4,UGUAUGUGAUUUGAUACCAGACCAUCUUGUGAGAAGUGAGUGAUGUUUAUUUUGGUUUGGGUCCCUUGGCAGCAAAUCGCAUACU [KL-SSTheoB23],560
5,CCAGCAAAGCUGGUCGCCAAACAACGGGCACGAGGACCGGUACGGCCGCCACUCGUGAGGACGAGUGAUGUUCGUUCACGGGCGA,587
6,UGAUACCAGACGGCCGCCACUUCCGCAAGUCAAAGACUUGCCAAGGGAAUCGUCCAGUGAUGUUGGAGGACCGGGUCUGGUAUCU [FiskerMod 4 - Jieux - Exclusion - Tryptophan B],516
7,UUUUUAUGCAGUGAUGUUGCUAAUAUAACAGAGGAUAUGCAUUAAUGCAGAAGGCUGAAAUACUAUACUUUAAUAUAUUAAAUUU [JR_SSFMNA_Sub015],132
8,GAGCGGUAGAGGCUACCGCUAUUCUGAGAAGGAGCGCAGAUGACUGCAGGUAGGUCGCUUAGAGCUUGCAGUGAUGUUGCAAGUU [Inzarier],176
9,UGGAUAUAGUGAUGUUAUAUAGAGAGGGAUACCAGUUUAGAGAAGAACCCUUGGCAGCCUAAAGAAGUAUCAUUAGAGAAGAAUG [ExTheophyl.An],229
10,ACGUAGUUCUAGGAUACCAGCCAAGGAGCGCAGGACAAAAGUCCUGCCGCCAGUGAUGUUGGCCCUUGGCAGCCUAGAACUACGA [Omei KL Theo B Exc B v1],162
11,CCAUUCUUUUACGAUACCAGUCUAAUAUAUUUAAUCAAAACCCUCGCCGAGUGAUGUUCGGACCCUUGGCAGCGUCUGCGAGAGG [ettyxtkmullin],472
12,UCUGCAAAGUCGGCCGCCACUCCGGGCCCUAUAAAUGGGCGCAGUGAUGUUGCGGCUAGGCCUCUGAGGACCGGGACUUUGUAGA [Atlesoqu],54.3
13,GCCGUAGAUUGAAGGAGCGGGCCGUAGUGAUGUUACGCCAAGUUGUCUUUUAUUGAUGUGGCCCAGGUAGGUCGCAAUCUACGGC,287
14,GCCGUAGAUUGAAGGAGCGUUCUUACUGAUUACGGCAGCCGGAAGUGAUGUUUCCAGGUGGAACAGGUAGGUCGCAAUCUACGGC,87.2
15,GGCCGCAAGGCGAGCGCUCCCACUCCGGAAGGAGCGCCCGCAAGGGCAGGUAGGUCGCCGGAGUGAUGUUCCGGUGGAGGGCUCG [#2 Exclusion - Arginine A Attempt #16 (Inspired by Omei)],271
16,AGAUGACAGGGAGGAUAUCCUAAUAUGGGUGAUGUUAGCGAUGUUGAAGGUGUAGUGAUGUUAUGCGGAGAAGGCCCUGUUGUUU [BDazzled - #23 - Exc. FMN B],61.7
17,GUGAAGGAGCUGCAGUGAUGUUGCAGAGACUAGGAUAUCAGGAAACUGAGAAGGAGUCAACUCCUUCACCUAGACAACAUCACUA [[F]''-[K1]-[K2]-[F1]-[F2]-[F2]'-[F1]'-[K]'_Design2],151
18,GCUAUGGUAGGAAGGAGCGCUUACUCGUUAAUAAGAGUGAUGUUCGAUAACGAGUAUUUAUAGCAGGUAGGUCGCCUACUAUAGC [Arginine B K4 4],193
19,ACGUAGUUCUAGGAUACCAGCCAAGGUCGCCAGGACAAAAGUCCUGGCGCCAGUGAUGUUGGCCCUUGGCAGCCUAGAACUACGA [Omei KL Theo B Exc B v6],176
20,GUCCAUGUCCUCAUUCGUGCACUGGACACCAAGGAUAUGUUUAUGGACAGAAGGUGGUUGGGUCAGUGAUGUUGAUAUAAUUAGU [theeternabot_exclusion_KL_FMN_A_24],276
21,UAUACACAGGGAGGAUAUGCCCACACAACAACCGAGUGAUGUUCGGACAAUACACAUAAUACACGGGCAGAAGGCCCACAUCACA [SS FNM B Tesla 1],195
22,AAUAAGUGUCAGCGAGUGAUGUUCGACGAUACCAGACUCGAUAGAGUCCCUUGGCAGCGUAACGCAUGCCAAACUGGCACAAUAA [#SwitchBubble 8 #K4Early],444
23,GGAGGAGAAUAUGAUACCAGCAGAGAGAGAGAGGAAGUAUAGUGAUGUUAUAUGUGAGAAUGCCCUUGGCAGCAUAACAUGAAGG [whbob_SS_Theo_B_sa90],193
24,GGCCGGAAGGCGAGCGCUCCCACUCCGGAAGGAGCGCCCGUAAGGGCAGGUAGGUCGCCGGAGUGAUGUUCCGGUGGAGGGCUCG [#2 Exclusion - Arginine A Attempt #21 (Inspired by Omei)],106
25,AGUGUGCAAAAGCACACUCAGUACAAGGACAAGGAUAUCUACUAAUAGAGAAGGUGUCCUUUCCUUAGUGAUGUUAAGGAACUGA [Omei KL FMN A SS D v3],500
26,AAAGAUCUUCUAGAAACUAGAAGAUCAAGAGAGGAUAUCCGAAUUCGGAGAAGGCUCACUAAGUGAUGUUUGGAGGGAAUCCCAA [AK1 SS FMN A],805
27,AGAGUUAAUUAGUCAUUUUUCACAUUAAGUCAGGAUAUCGUAUUUUCGAGAAGGGACACAUGCUAGUGAUGUUAGCUAUUUCUCA [JR_Nu_ExcFMNA_Sub021],93.9
